Legend:
SEC-MALS = target: the molecule itself; experiment: SEC-MALS
cross-linking = target: the molecule itself; experiment: cross-linking

Protein | stoichiometry N (SEC-MALS) | stoichiometry N (cross-linking)
mouse TRIM56 coiled-coil domain mutant (L244A, V251A, V255A, I262A, L266A, Q269A, V273A, Q276A, L277A, L280A, R291A) (domain or fragment, UniProt Q80VI1 215-303, looked up) GLEELLAGVDSNLVELEATRVAEKEALALAREQAASAGTQAEEAAERALKSALAAKQEALGAARAAVEAAEEATREALTKIERQEQVAK | 2 | 
mouse TRIM56 coiled-coil domain (residues 215-303) (domain or fragment, UniProt Q80VI1 215-303, looked up) GLEELLAGVDSNLVELEATRVAEKEALALLREQAASVGTQVEEAAERILKSLLAQKQEVLGQLRALVEAAEEATRERLTKIERQEQVAK | 4 | 
FLAG-tagged full-length mouse TRIM56, wild type (natural protein, UniProt Q80VI1 1-734, looked up) MNSKVSSPTLLEALSSDFLACKICLEQLHTPKTLPCLHTYCQDCLAQLDIGGQVRCPECREIVPVPAEGVAAFKTNFFVNGLLDLVKARAPGDVHSGKPTCALCPLVGGKSSGGPATARCLDCADDLCQACADGHRCSRQTHKHRVVDLVGYRAGWYDEEARERQASQCPQHPGEALCFLCQPCSQLLCKDCRLGPHIDHPCLPLAEAVRSRKPGLEELLAGVDSNLVELEATRVAEKEALALLREQAASVGTQVEEAAERILKSLLAQKQEVLGQLRALVEAAEEATRERLTKIERQEQVAKAAAAFARRVLSLGLEAEILSLEGAITQRLRQLQDAPWTSGPTRCVLPQLELHPGLEDKNCHLLRLIFEEPKQSPKDSGKGGAGTQGGDEAQGQGDDRTKIGKQGGAQPLTPKEGKDQNPQEDDGVFIERGNRPNKKKKCKGRGKSVSREPSPILRPNLEGSGLLPRPVFSWSFPTRMPGDKRSPRITGLCPYGPQEILVADEQNRVLKRFSLNGDYKGTVQVPEGCSPCSVAALQNAVAFSANAKLYLVSPDGEIQWRRSLSLTQSSHAVAAMPCGDRVAVSVAGHVEVYKKDGSLATRFIPGGKASRGQRALVFLTTSPQGNFVGSDWQQNSVVFCDGLGQVIWEYKGPGLHGCQPGSVSVDKKGYIFLTLREVNKVVILDPKGSLLGDFLTAYHGLEKPRVTTMVDGKYLVVSLSNGTIHVFRVRFPDS |  | 4
mouse TRIM56 RING domain (residues 2-88) (domain or fragment, UniProt Q80VI1 2-88, looked up) NSKVSSPTLLEALSSDFLACKICLEQLHTPKTLPCLHTYCQDCLAQLDIGGQVRCPECREIVPVPAEGVAAFKTNFFVNGLLDLVKA | 2 | 
